Measurements as given in patent US20250223314A1.
pKd: −log10 of the molar value.

Target: Tocilizumab (IgG1)
Experiment: SPR (Biacore), tocilizumab immobilised via EDC/NHS on CM5 chip, receptor as analyte

pKd	Substance
7.75	Deglycosylated D2 (Man9 deglycosylated using EndoH) (receptor)
9.32	Man9 (Pichia-produced FcγRIIIa domain 2 ligand with Mannose 9 glycosylation) (receptor)
